B1: #1: fully human anti-LILRB3 blocking IgG, epitope bin 3; B3-1 VH SEQ ID NO: 341, VL SEQ ID NO: 395 (antibody, V domains shown)
VH: EVQLVESGGGVVQPGRSLRLSCAASGFTFSSYGMHWVRQAPGKGLEWVAFIRYDGSNKYYADSVKGRFTISRDNSKNTLYLQMNSLRAEDTAVYYCAKAGFSGWYYYGMDVWGQGTMVTVSS
VL: DIVMTQSPSSLSASVGDRLTITCRASQSISTYLNWYQQKPGKAPKLLIYGASSLQSGVPSRFSGSGSGTDFTLTISSLQPEDFATYFCQQSYGLPLTFGGGTKVDIK
modifications: Synthetic antibody
B2: #26: fully human anti-LILRB3 IgG, epitope bin 3; B3-26 VH SEQ ID NO: 353, VL SEQ ID NO: 407 (antibody, V domains shown)
VH: QVQMVESGGGLVKPGGSLRLSCAASGFTFSDHYLSWIRQAPGKGLEWVSYIDLSGSTVYYGDSVKGRFTISRDNARNSVYLQMNSLRAEDTAVYYCARGHYGLDVWGQGTMVTVSS
VL: NIQMTQSPSTLSASVGDRVTISCRASQSIGTWLAWYQQKPGKAPQLLIYKASSLHSGVPSRFSGSGSGTEFTLTISSLQPDDFATYYCQQYNLYSRTFGQGTKVEIK
modifications: Synthetic antibody
B3: anti-LILRB3 #6: anti-LILRB3 antibody which cannot inhibit LILRB3 signaling; B3-6 VH SEQ ID NO: 345, VL SEQ ID NO: 399 (antibody, V domains shown)
VH: QVQLQQSGPGLVKPSQTLSLTCAISGDSVSSNSAAWNWIRQSPSRGLEWLGRTYYRSKWYNNYAVSVKSRITINPDTSKNQFSLQLNSVTPEDTAVYYCARALAGIDGFDVWGQGTTVSVSS
VL: AIQLTQSPSSLSASVGDRITITCRASQSISKYLNWYQQKPGEAPKLLIYAASSLQSGVPSRFSGSGSGTDFTLTISSLQPEDFATYYCQEKDNFGQGTKLEIK
modifications: Synthetic antibody

Experiments:
LILRB3 [1] = target: T1, LILRB3 (Homo sapiens, UniProt O75022); assay: Octet-based epitope binning assay; format: binding; settings: Octet sandwich binning
Procedure: (§1) Affinity measurement and epitope binning: Affinity measurement and epitope binning were done as described previously (Gui et al., 2019). Briefly, antibody affinity was analyzed with the Octet RED96 instrument. Antibody ([…]) was loaded onto the protein A biosensors then exposed to a series of concentrations of recombinant LILRB3 (0.1-200 nmol/L), and background subtraction was used to correct for sensor drift. ForteBio's data analysis software was used to extract association and dissociation rates assuming a 1:1 binding model. The Kd was calculated as the ratio koff/kon. Epitope binning of anti-LILRB3 rabbit antibodies was performed with an Octet RED96 instrument using a classical sandwich epitope binning assay. In these epitope binning assays, primary antibodies (40 μg/ml) were loaded onto protein A biosensors, and remaining Fc-binding sites on the sensor were blocked with a human non-targeting IgG (200 μg/ml). The sensors were then exposed to the 1 μM LILRB3 diluted in 1× kinetics buffer, followed by the secondary antibodies (40 μg/ml). Raw data were processed using ForteBio's Data Analysis Software 7.0. Antibody pairs were assessed for competitive binding. […]

LILRB3 [2] = target: T1, LILRB3; assay: Affinity measurement with Octet RED96; format: binding; settings: compared between the two IgGs of bin 3
Procedure: as §1

LILRAs and other LILRBs = assay: Cross-reactivity with LILRAs and other LILRBs (binding analyses); parameters: species or system human; settings: versus LILRAs and other LILRBs
Procedure: (§2) FIGS. S6A-J. Development of anti-LILRB3 blocking antibodies for suppressing AML development. (FIG. S6a) Upper: Flow chart of strategy for development of fully humanized antibodies against LILRB3. Lower: The identified antibodies were tested in the LILRB3 chimeric receptor reporter cell assay. (FIG. S6b) ELISA results for LILRB3 binders. (FIG. S6c) EC50 values of the anti-LILRB3 antibodies based on ELISA. (FIG. S6d) Affinities of antibodies #32, #33, #67, and #45 to LILRB3 as determined by Octet. (FIG. S6e) Cross-reactivity of the anti-LILRB3 antibodies with LILRAs evaluated with LILRA binding analyses. (FIG. S6f) Cross-reactivity of the anti-LILRB3 antibodies with other LILRBs evaluated with LILRB binding analyses. (FIG. S6g) Interaction with TRAF2 contributes to the effect of LILRB3 on AML development. CFU assay of MLL-AF9 AML cells expressing wild-type LILRB3 or mutant LILRB3 with mutations disrupting TRAF2 binding (AAA, QEE509-511AAA) or disrupting SHP-1/2 interactions (Y596/626F) in the presence of control or anti-LILRB3 antibodies (n=3 wells). […] (FIG. S6j) NF-κB signaling target gene expression (measured by qPCR) in THP-1 cells from BM of xenografted NSG mice treated with anti-LILRB3 #1NA or IgG (n=3 individual samples). The data are presented as mean±s.e.m, and p values were calculated by two-tailed t-test except for FIG. S6i by log-rank test.

MLL-AF9 AML cells = assay: CFU assay of mouse MLL-AF9 AML cells; format: cell-based; settings: for colony formation by MLL-AF9 cells: screen of the high-affinity IgGs
Description: (§3) FIGS. 7A-N. Blocking anti-LILRB3 antibody prevents monocytic AML development. (FIG. 7A) Epitope binning of 30 high-affinity IgGs. (FIG. 7B) CFU assay of mouse MLL-AF9 AML cells in the presence of above IgGs (n=3 independent experiments). (FIG. 7C) Binding affinities of the two IgGs from bin #3. (FIG. 7D) Upper: Schematic of treatment. Lower: Percentages of GFP^+ MLL-AF9 mouse AIL cells in peripheral blood (PB), bone marrow (BM), spleen (SPL), and liver (LV) of mice transplanted with AML cells expressing B3-FL or B3delICD and injected with IgG or anti-LILRB3 #1 N297A (n=3 independent mice). (FIG. 7E) Overall survival of mice transplanted with indicated AML cells as above. (FIG. 7F) CFU assay of MLL-AF9 mouse AML cells expressing B3-FL or B3delICD in the presence of IgG or anti-LILRB3 #1 N297A (n=3 independent experiments) (FIG. 7G) Upper: Schematic of treatment. Recipient mice were injected with mouse IgG or anti-mCD8 to deplete CD8 T cells. Lower: Percentages of GFP^+ MLL-AF9 mouse AML cells in peripheral blood (PB), bone marrow (BM), spleen (SPL), and liver (LV) of mice transplanted with AML cells expressing B3-FL or B3delICD and injected with IgG or anti-LILRB3 #1 LALAPG (n=4 mice). (FIG. 7H) Survival of mice as in panel h (n=4 independent mice). (FIG. 7I) Upper: Schematic of treatment. Lower: Whole-body images of NSG mice transplanted with luciferase-expressing THP-1 cells and treated with IgG or anti-LILRB3 #1 N297A (#1NA). (FIG. 7J) Overall survival of the mice shown in panel h (n=3 independent mice). (FIG. 7K) Upper: Schematic of treatment. Lower: Whole-body images of NSG mice transplanted with luciferase-expressing Molm13 cells, injected with activated T cells, and treated with IgG or #1NA. (FIG. 7L) Luciferase signaling as a function of time in mice treated as described in panel k. (FIG. 7M) Overall survival of mice treated as described in panel k (n=3 independent mice). (FIG. 7N) Analyses of T cells in peripheral blood of mice treated as described in panel 1 at 22 days after Molm13 AML cell transplantation. Upper: Flow cytometry analyses. Lower: Plot of T cell percentages (n=3 independent mice). The data are presented as mean±s.e.m, and p values were calculated by two-tailed t-test except for FIG. 7E, FIG. 7H, FIG. 7J and FIG. 7M by log-rank test.
as §2, with “development.” for “development. CFU assay of MLL-AF9 AML cells expressing wild-type LILRB3 or mutant LILRB3 with mutations disrupting TRAF2 binding (AAA, QEE509-511AAA) or disrupting SHP-1/2 interactions (Y596/626F) in the presence of control or anti-LILRB3 antibodies (n=3 wells).”, “The data are presented as mean±s.e.m, and p values were calculated by two-tailed t-test except for FIG. S6i by log-rank test.” left out

[3] = system: MLL-AF9 AML cells expressing B3-FL or B3delICD; assay: Immuno-competent mice transplanted with MLL-AF9 AML cells expressing B3-FL or B3delICD; format: in vivo, mouse; settings: versus IgG
Description: as §3, with “(FIG. 7N) Analyses of T cells in peripheral blood of mice treated as described in panel 1 at 22 days after Molm13 AML cell transplantation. Upper: Flow cytometry analyses. Lower: Plot of T cell percentages (n=3 independent mice).” left out, “test. […]” for “test.”

Row | Molecule | LILRB3 epitope bin (LILRB3 [1]) | binding affinity (LILRB3 [2]) | specificity to LILRB3 (LILRAs and other LILRBs) | colony formation by MLL-AF9 cells (MLL-AF9 AML cells) | inhibition of LILRB3 signaling (MLL-AF9 AML cells; FIG. 7b) | progress of AML with B3-FL and with B3del ICD [3]
1 | B1 | third bin | higher affinity than #26 | specific to LILRB3 | blocked colony formation by MLL-AF9 cells | – | –
2 | B2 | third bin | – | specific to LILRB3 | blocked colony formation by MLL-AF9 cells | – | –
3 | B3 | – | – | – | – | cannot inhibit LILRB3 signaling | suppresses the progresses of both AML with B3-FL and AML with B3del ICD with similar efficacies
